Results as given in PMC4226653 (Journal of molecular biology, 2012).

Columns and labels:
[1] = target: T1, human Nup88 N-terminal domain (residues 1–493) (human, UniProt Q99567 1-493); experiment: SEC-MALS
T1 sequence (looked up): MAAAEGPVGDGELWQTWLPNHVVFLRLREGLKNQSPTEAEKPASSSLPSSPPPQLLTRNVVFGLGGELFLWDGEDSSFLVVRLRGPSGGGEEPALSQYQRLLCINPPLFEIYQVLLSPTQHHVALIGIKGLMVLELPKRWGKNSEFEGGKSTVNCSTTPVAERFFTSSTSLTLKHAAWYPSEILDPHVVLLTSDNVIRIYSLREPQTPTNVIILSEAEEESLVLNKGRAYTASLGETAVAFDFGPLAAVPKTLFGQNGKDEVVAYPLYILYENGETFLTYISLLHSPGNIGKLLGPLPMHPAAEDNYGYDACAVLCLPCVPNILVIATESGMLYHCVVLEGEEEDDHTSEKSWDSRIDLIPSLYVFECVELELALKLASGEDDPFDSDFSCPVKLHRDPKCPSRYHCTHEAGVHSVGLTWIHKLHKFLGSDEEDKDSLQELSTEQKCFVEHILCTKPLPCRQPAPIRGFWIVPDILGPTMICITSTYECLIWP

[2] = target: yNup82^NTD•yNup159^T pair (S. cerevisiae, UniProt P40368 1-452; P40477 1425-1460); experiment: SEC-MALS
Chain of yNup82^NTD•yNup159^T pair (P40368 1-452, chain 1 of 2): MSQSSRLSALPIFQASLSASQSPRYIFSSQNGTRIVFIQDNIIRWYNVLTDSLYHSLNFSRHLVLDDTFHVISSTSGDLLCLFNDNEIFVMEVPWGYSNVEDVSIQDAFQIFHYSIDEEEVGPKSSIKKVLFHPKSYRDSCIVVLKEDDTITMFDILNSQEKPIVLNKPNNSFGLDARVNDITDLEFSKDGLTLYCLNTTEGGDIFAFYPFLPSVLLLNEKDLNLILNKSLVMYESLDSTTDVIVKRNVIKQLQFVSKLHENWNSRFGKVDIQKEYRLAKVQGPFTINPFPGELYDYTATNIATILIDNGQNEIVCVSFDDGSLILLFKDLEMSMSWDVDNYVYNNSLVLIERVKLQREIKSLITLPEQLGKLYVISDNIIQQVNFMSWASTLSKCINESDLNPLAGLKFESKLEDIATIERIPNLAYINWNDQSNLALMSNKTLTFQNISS
Chain of yNup82^NTD•yNup159^T pair (P40477 1425-1460, chain 2 of 2): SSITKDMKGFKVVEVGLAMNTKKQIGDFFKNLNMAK

stoichiometry N [1]: 1
stoichiometry N [2]: 1
B1: mouse Nup98 autoproteolytic domain (residues 732–880) (domain or fragment, UniProt Q6PFD9 732-880, looked up)
chain: AGIVLTKVGYYTIPSMDDLAKITNEKGECIVSDFTIGRKGYGSIYFEGDVNLTNLNLDDIVHIRRKEVIVYVDDNQKPPVGEGLNRKAEVTLDGVWPTDKTSRCLIKSPDRLADINYEGRLEAVSRKQGAQFKEYRPETGSWVFKVSHF
